± gives the uncertainty stated by the source.
Experiment: self-splicing fitness, log relative to wild type (ln ratio); higher = more splicing; Tetrahymena group I intron in knt gene, E. coli kanamycin selection, DiMSum; sequences stand for … in CUCUCU…GGAGGGAAAAGUUAUCAGGCAUGCACCUGGUAGCUAGUCUUUAAACCAAUAGAUUGCAUCGGUUUAAAAGGCAAGACCGUCAAAUUGCGGGAAAGGGGUCAACAGCCGUUCAGUACCAAGUCUCAGGGGAAACUUUGAGAUGGCCUUGCAAAGGGUAUGGUAAUAAGCUGACGGACAUGGUCCUAACCACGCAGCCAAGUCCUAAGUCAACAGAUCUUCUGUUGAUAUGGAUGCAGUUCACAGACUAAAUGUCGGUCGGGGAAGAUGUAUUCUUCUCAUAAGAUAUAGUCGGACCUCUCCUUAAUGGGAGCUAGCGGAUGAAGUGAUGCAACACUGGAGCCGCUGGGAACUAAUUUGUAUGCGAAAGUAUAUUGAUUAGUUUUGGAGUACUCGUGGUCG
Method in brief: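 Library with all eight P1ex-region intron nucleotides randomised, intron inside the knt kanamycin-resistance gene on pET-22b(+), in E. coli BL21(DE3). Cells grew overnight at 37°C or 30°C on LB agar with or without 25 μg/mL kanamycin (plus 100 μg/mL carbenicillin, 50 μM IPTG, 0.2% rhamnose), in six replicate transformations. Pooled colonies were amplicon-sequenced on Illumina HiSeq 2500. DiMSum fitness is the error-weighted combination of wild-type-normalised replicate fold changes, kanamycin versus none.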

Sequence	self-splicing fitness (ln) (30 °C)	self-splicing fitness (ln) (37 °C)
AUGUAGCAAUAUUACGCUGC	-2.72 ± 0.41	-2.69 ± 0.48
AUGUAGCAAUAUUACGGAGU	-3.01 ± 0.23	-1.2 ± 0.18
AUGUAGCAAUAUUACGGCAA	0.118 ± 0.11	-0.419 ± 0.12
AUGUAGCAAUAUUACGGCCA	-0.669 ± 0.21	-0.586 ± 0.22
AUGUAGCAAUAUUACGGCCU	0.449 ± 0.097	0.248 ± 0.12
AUGUAGCAAUAUUACGGCGC	-0.704 ± 0.094	-0.408 ± 0.12
AUGUAGCAAUAUUACGGGUG	-3.85 ± 0.29	-2.54 ± 0.18
AUGUAGCAAUAUUACGUAAG	-2.99 ± 0.2	-2.93 ± 0.2
AUGUAGCAAUAUUACGUACC	-0.724 ± 0.19	-1.14 ± 0.18
AUGUAGCAAUAUUACGUAGG	-3.93 ± 0.19	-1.43 ± 0.096
AUGUAGCAAUAUUACGUCUC		-2.4 ± 0.3
AUGUAGCAAUAUUACGUGAG	-0.927 ± 0.15	-0.0873 ± 0.21
AUGUAGCAAUAUUACGUUAC	-4.22 ± 0.39	-0.607 ± 0.2
AUGUAGCAAUAUUACGUUGG	-2.21 ± 0.12	-1.8 ± 0.17
AUUAAGCAAUAUUACGACAA	-0.618 ± 0.096	-0.264 ± 0.11
AUUAAGCAAUAUUACGACAG	-1.91 ± 0.16	-1.47 ± 0.19
AUUAAGCAAUAUUACGACUG	-2.34 ± 0.2	-1.64 ± 0.24
AUUAAGCAAUAUUACGAGGU	-2.83 ± 0.24	-2.1 ± 0.31
AUUAAGCAAUAUUACGAUGG	-3.96 ± 0.37	-1.94 ± 0.26
AUUAAGCAAUAUUACGCAAA	-1.78 ± 0.23	-1.32 ± 0.18
AUUAAGCAAUAUUACGCCAA	-0.955 ± 0.21	-1.59 ± 0.25
AUUAAGCAAUAUUACGCCGG	-0.824 ± 0.19	-0.226 ± 0.25
AUUAAGCAAUAUUACGCCUA	-0.154 ± 0.086	0.195 ± 0.11
AUUAAGCAAUAUUACGCGCC	-1.18 ± 0.15	-0.862 ± 0.2
AUUAAGCAAUAUUACGCGCU	-0.542 ± 0.11	-0.561 ± 0.15
AUUAAGCAAUAUUACGCUAA	-1.89 ± 0.17	-0.434 ± 0.13

Sequence	self-splicing fitness (ln) (30 °C)	self-splicing fitness (ln) (37 °C)
AUUAAGCAAUAUUACGCUCC	-1.04 ± 0.23	-0.859 ± 0.29
AUUAAGCAAUAUUACGGAUA	-2.12 ± 0.28	-1.99 ± 0.2
AUUAAGCAAUAUUACGGCAC	-1 ± 0.086	-0.297 ± 0.11
AUUAAGCAAUAUUACGGCCA	-0.171 ± 0.12	-0.598 ± 0.12
AUUAAGCAAUAUUACGGCCC	-0.404 ± 0.27	-0.419 ± 0.27
AUUAAGCAAUAUUACGGCUC	-0.973 ± 0.16	0.244 ± 0.17
AUUAAGCAAUAUUACGGGUG	-1.87 ± 0.13	-1.69 ± 0.16
AUUAAGCAAUAUUACGGUCA	-1.4 ± 0.14	-0.528 ± 0.14
AUUAAGCAAUAUUACGGUUU	-0.783 ± 0.07	0.254 ± 0.12
AUUAAGCAAUAUUACGUCAU	-1.51 ± 0.1	-0.717 ± 0.12
AUUCAGCAAUAUUACGAACC	-0.503 ± 0.16	-0.325 ± 0.2
AUUCAGCAAUAUUACGAACU	0.334 ± 0.13	0.543 ± 0.14
AUUCAGCAAUAUUACGACGG	-2.61 ± 0.19	-1.52 ± 0.17
AUUCAGCAAUAUUACGACUA	-0.646 ± 0.12	-0.106 ± 0.12
AUUCAGCAAUAUUACGAGCG	-1.08 ± 0.078	-0.441 ± 0.1
AUUCAGCAAUAUUACGAUAA	-0.72 ± 0.086	-0.295 ± 0.099
AUUCAGCAAUAUUACGAUAC	-1.17 ± 0.097	0.368 ± 0.11
AUUCAGCAAUAUUACGAUCA	-0.753 ± 0.088	-0.162 ± 0.11
AUUCAGCAAUAUUACGCCAC		-2.32 ± 0.42
AUUCAGCAAUAUUACGCCAG	-3.08 ± 0.22	-0.928 ± 0.22
AUUCAGCAAUAUUACGCCGA	0.0822 ± 0.39	-0.539 ± 0.39
AUUCAGCAAUAUUACGCGCA	-0.00177 ± 0.12	-0.315 ± 0.12
AUUCAGCAAUAUUACGCGCU	-2.15 ± 0.12	-0.796 ± 0.13
AUUCAGCAAUAUUACGCGGG	-2.38 ± 0.15	-0.332 ± 0.11
AUUCAGCAAUAUUACGCGUA	-1.16 ± 0.086	-0.145 ± 0.11
AUUCAGCAAUAUUACGCUCG	-1.11 ± 0.16	0.0381 ± 0.19

Sequence	self-splicing fitness (ln) (30 °C)	self-splicing fitness (ln) (37 °C)
AUUCAGCAAUAUUACGGCCG	-1.09 ± 0.3	-0.945 ± 0.3
AUUCAGCAAUAUUACGGCCU	-1.03 ± 0.12	0.0851 ± 0.22
AUUCAGCAAUAUUACGGCGG	-1.77 ± 0.1	-1.77 ± 0.11
AUUCAGCAAUAUUACGGCUU	0.744 ± 0.12	-0.128 ± 0.13
AUUCAGCAAUAUUACGGGUC	-4.41 ± 0.46	-2.94 ± 0.24
AUUCAGCAAUAUUACGGUAA	-0.935 ± 0.086	-0.659 ± 0.078
AUUCAGCAAUAUUACGGUCC	-1.46 ± 0.11	-0.22 ± 0.12
AUUCAGCAAUAUUACGGUUU	-0.00618 ± 0.064	-0.247 ± 0.072
AUUCAGCAAUAUUACGUAAU	-0.328 ± 0.079	0.348 ± 0.11
AUUCAGCAAUAUUACGUACG	-1.91 ± 0.087	-0.205 ± 0.1
AUUCAGCAAUAUUACGUCAA	-0.663 ± 0.11	-0.912 ± 0.11
AUUCAGCAAUAUUACGUCGU	-0.283 ± 0.071	0.553 ± 0.085
AUUCAGCAAUAUUACGUGAG	0.00589 ± 0.07	0.325 ± 0.12
AUUCAGCAAUAUUACGUUAC	-2.76 ± 0.17	-1.2 ± 0.12
AUUGAGCAAUAUUACGAAGU	-1.71 ± 0.29	-1.72 ± 0.42
AUUGAGCAAUAUUACGAGGA	-1.8 ± 0.32	-2.41 ± 0.29
AUUGAGCAAUAUUACGAUGA		-2.08 ± 0.35
AUUGAGCAAUAUUACGCAAG	-3.27 ± 0.19	-1.31 ± 0.18
AUUGAGCAAUAUUACGCACC	-1.98 ± 0.3	-1.84 ± 0.43
AUUGAGCAAUAUUACGCAGU	-2.95 ± 0.36	-2.11 ± 0.38
AUUGAGCAAUAUUACGCCAC	-1.44 ± 0.42	
AUUGAGCAAUAUUACGCCAU	-3.54 ± 0.24	-1.69 ± 0.19
AUUGAGCAAUAUUACGCUAA	-2.5 ± 0.16	-1.54 ± 0.16
AUUGAGCAAUAUUACGCUCG	-2.02 ± 0.33	-0.869 ± 0.22
AUUGAGCAAUAUUACGCUGC	-3.62 ± 0.47	-1.77 ± 0.41
